Data on one substance can be found in publication PMC8413895.

This test addresses HIV-1 Env variant ADA.CM, trimer on virions (HIV-1 (ADA.CM)).

For the substance 4E10 Fab (parental, wild-type), the IC50 of neutralization of ADA.CM pseudovirus, TZM-bl assay was found to be 2.7 µg/mL.
